Sequences and labels used below:
T1: mouse secretagogin V233A (mouse, UniProt Q91WD9 1-276, V233A)
T1 sequence: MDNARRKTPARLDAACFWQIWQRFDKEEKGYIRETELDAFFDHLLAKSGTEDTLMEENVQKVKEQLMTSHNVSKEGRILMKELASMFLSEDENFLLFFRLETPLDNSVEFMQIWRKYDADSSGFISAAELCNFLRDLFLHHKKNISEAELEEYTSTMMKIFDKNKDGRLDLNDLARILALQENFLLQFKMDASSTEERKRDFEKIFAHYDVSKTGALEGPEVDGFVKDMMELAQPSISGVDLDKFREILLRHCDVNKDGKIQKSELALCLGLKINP

T2: mouse secretagogin M229E (mouse, UniProt Q91WD9 1-276, M229E)
T2 sequence: T1 sequence with M229E, A233V

T3: mouse secretagogin M229A (mouse, UniProt Q91WD9 1-276, M229A)
T3 sequence: T1 sequence with M229A, A233V

T4: mouse secretagogin R198A (mouse, UniProt Q91WD9 1-276, R198A)
T4 sequence: T1 sequence with R198A, A233V

B1: mouse secretagogin (natural protein)
chain: T1 sequence with A233V
B2: helix-b of the Habc domain of mouse syntaxin-4 (domain or fragment)
chain: TPLPEESMKQGLQNLREEIKQLGREVRAQLKAIEPQKE

Substitutions are numbered along the chain they refer to.

What all share (assay): ITC
Assay [1] has as its target B2.
For assay [2], the target named is C-terminal SNARE domain of mouse SNAP-25 (mouse, UniProt P60879 140-206).
Assay [3] addresses T1, mouse secretagogin V233A.
The target of assay [4] is T2, mouse secretagogin M229E.
Assay [5] concerns the target T3, mouse secretagogin M229A.
The target of assay [6] is T4, mouse secretagogin R198A.

Sequence of C-terminal SNARE domain of mouse SNAP-25 (P60879 140-206): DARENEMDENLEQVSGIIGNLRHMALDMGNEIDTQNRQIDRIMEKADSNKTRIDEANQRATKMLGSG

In the case of B1, the dissociation constant (Kd) (as a rule, the concentration at which binding is half-saturated) is 407 nM in assay [1] and 21.9 nM in assay [2].

For the molecule B2, the Kd in assay [3] turned out to be 125 nM; in assay [4], 5.21 µM; in assay [5] it was 1620 nM; in assay [6] it was 808 nM.

For the origin of these results see article PMC11032447 (2024).
